Experiment [1] has as its target T1, human mesothelin (recombinant, soluble, purified; 40 kDa C-terminal polypeptide of the mesothelin precursor) (human, UniProt Q13421 296-598, limits assumed).
T1 construct: also called soluble mesothelin
Put plainly: SPR (Biacore), Fab on directly immobilized mesothelin. Background: In SPR one partner is held on a chip, and binding of the other changes the refractive index at the surface.

Experiment [2] deals with T2, mesothelin on NCI-H226 cells (UniProt Q13421 296-598).
T2 construct: whole, on cells; In the immunoblots the protein stood in a denatured cell extract
Put plainly: FACS titration, IgG on NCI-H226 cells. The protocol: FACS titration was performed in a 96 well microtiter plate, in which serial dilutions of the primary antibody in a volume of 80 μl of FACS buffer (3% FCS, 0.02% NaN₃ in PBS) were mixed with 20 μl of a cell suspension consisting of 10⁶ cells/ml which had been detached with accutase or trypsin/EDTA, and resuspended in FACS buffer. Incubation was performed at 4° C. for 1 hour with agitation. Cells were washed twice with FACS buffer and resuspended in 100 μl/well of anti-human PE conjugate solution in FACS buffer. Incubation and washing was performed as before. Analysis of cell-bound antibodies was done using the FACS Array device. EC₅₀ values were determined from fluorescence medians of duplicates using Prism 4.0 software (GraphPad) applying non-linear regression fit.

The target in experiment [3] is T1, human mesothelin (recombinant, soluble, …). Briefly: SPR (Biacore 3000), Fab on covalently immobilized human mesothelin.
Experiment [4] has as its target T3, murine mesothelin (recombinant) (murine, UniProt Q61468 298-600, limits assumed).
T3 construct: Covalently immobilized on the Biacore chip
T3 sequence (looked up): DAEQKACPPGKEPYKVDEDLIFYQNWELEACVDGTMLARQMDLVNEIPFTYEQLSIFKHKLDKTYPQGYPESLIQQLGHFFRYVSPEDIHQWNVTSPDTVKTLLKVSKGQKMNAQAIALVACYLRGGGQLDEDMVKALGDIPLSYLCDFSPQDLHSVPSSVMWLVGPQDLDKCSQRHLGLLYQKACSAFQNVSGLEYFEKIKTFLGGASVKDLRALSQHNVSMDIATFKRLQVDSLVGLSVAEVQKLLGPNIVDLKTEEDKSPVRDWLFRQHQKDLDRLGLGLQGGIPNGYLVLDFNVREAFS
Briefly: SPR (Biacore 3000), Fab on covalently immobilized murine mesothelin. The protocol:
Shown in Table 5 are results of Biacore and ELISA studies showing cross-reactivity of antibodies of the invention to murine mesothelin. The kinetic constants kₒₙ and koff were determined with serial dilutions of the respective purified Fab fragment binding to covalently immobilized human or murine mesothelin using the Biacore 3000 instrument (Biacore, Uppsala, Sweden). Covalent antigen immobilization was achieved by a standard EDC-NHS coupling procedure. Kinetic measurements were done in PBS, pH 7.2 at a flow rate of […] using Fab concentration ranging from 1.5-500 nM. Injection time for each concentration was 1 min, followed by 3 min dissociation phase. For regeneration 5 μl 10 mM glycine buffer, pH 1.8 was used. All sensograms were fitted using the BIA evaluation software 3.1 (Biacore).

T1 sequence (Q13421 other isoform, or with tags, fused parts or gaps limits assumed): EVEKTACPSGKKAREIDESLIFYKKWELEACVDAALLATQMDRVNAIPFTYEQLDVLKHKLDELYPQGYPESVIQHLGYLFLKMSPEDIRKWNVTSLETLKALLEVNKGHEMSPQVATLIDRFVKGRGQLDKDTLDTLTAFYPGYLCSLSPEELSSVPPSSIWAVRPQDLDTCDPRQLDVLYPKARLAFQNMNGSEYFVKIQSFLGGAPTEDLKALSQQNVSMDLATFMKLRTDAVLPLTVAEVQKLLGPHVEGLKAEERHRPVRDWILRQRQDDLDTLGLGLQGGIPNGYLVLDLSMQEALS
T2 sequence (Q13421 other isoform, or with tags, fused parts or gaps limits assumed): as above

B1: MF-J Fab (Fab, V domains shown)
VH: QVELVQSGAEVKKPGESLKISCKGSGYSFTNYWIGWVRQMPGKGLEWMGVIMPSDSYTRYSPSFQGQVTISADKSISTAYLQWSSLKASDTAMYYCARYGHGMYGGALDVWGQGTLVTVSS
VL: DIVLTQSPATLSLSPGERATLSCRASQSVRSSRLAWYQQKPGQAPRLLIYGASKRATGVPARFSGSGSGTDFTLTISSLEPEDFATYYCQQYYDFPPTFGQGTKVEIKR
notes: Purified Fab
For the molecule B1, in experiment [1], the Kd came to 9.2 nM and the koff was 0.0029 s⁻¹.

B2: MOR06640 IgG (antibody, V domains shown)
VH: QVQLVQSGAEVKKPGESLKISCKGSGYSFTNYWIGWVRQMPGKGLEWMGVIMPSDSYTRYSPSFQGQVTISADKSISTAYLQWSSLKASDTAMYYCARYGHGMYGGALDVWGQGTLVTVSS
VL: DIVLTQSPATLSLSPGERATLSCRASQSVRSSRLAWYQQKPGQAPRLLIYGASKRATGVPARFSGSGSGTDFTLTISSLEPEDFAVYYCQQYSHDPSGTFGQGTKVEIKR
As to B2, the concentration giving a half-maximal response (EC50) in experiment [2] was 0.63 nM.

B3: MOR06669 Fab (Fab, V domains shown)
VH: QVQLVQSGAEVKKPGESLKISCKGSGYSFTNYWIGWVRQMPGKGLEWMGIIWPIDSFTQYSPSFQGQVTISADKSISTAYLQWSSLKASDTAMYYCARYGHGMYGGALDVWGQGTLVTVSS
VL: DIVLTQSPATLSLSPGERATLSCRASQSVRSSRLAWYQQKPGQAPRLLIYGASKRATGVPARFSGSGSGTDFTLTISSLEPEDFATYYCQQYYDFPPTFGQGTKVEIKR
notes: Purified Fab
Turning to B3, in experiment [1], the Kd turned out to be 0.24 nM and the off-rate constant (koff) came out at 8.1e-05 s⁻¹.

B4: MOR06669 IgG (antibody, V domains shown)
VH: QVQLVQSGAEVKKPGESLKISCKGSGYSFTNYWIGWVRQMPGKGLEWMGIIWPIDSFTQYSPSFQGQVTISADKSISTAYLQWSSLKASDTAMYYCARYGHGMYGGALDVWGQGTLVTVSS
VL: DIVLTQSPATLSLSPGERATLSCRASQSVRSSRLAWYQQKPGQAPRLLIYGASKRATGVPARFSGSGSGTDFTLTISSLEPEDFATYYCQQYYDFPPTFGQGTKVEIKR
Regarding B4, it took 0.41 nM to reach a half-maximal effect in experiment [2] (EC50).

B5: MOR07111 IgG (antibody, V domains shown)
VH: QVQLVQSGAEVKKPGESLKISCKGSGYSFTNYWIGWVRQMPGKGLEWMGVIMPSDSYTRYSPSFQGQVTISADKSISTAYLQWSSLKASDTAMYYCARYGHGMYGGALDVWGQGTLVTVSS
VL: DIVLTQSPATLSLSPGERATLSCRASQSVRSSRLAWYQQKPGQAPRLLIYGASKRATGVPARFSGSGSGTDFTLTISSLEPEDFAVYYCQQFYSKPITFGQGTKVEIKR
In turn, B5 returned an EC50 in experiment [2] of 0.8 nM.

B6: MOR06631 Fab (Fab, V domains shown)
VH: QVQLVQSGAEVKKPGESLKISCKGSGYSFTNYWIGWVRQMPGKGLEWMGFIWPVDSWTQYSPSFQGQVTISADKSISTAYLQWSSLKASDTAMYYCARYGHGMYGGALDVWGQGTLVTVSS
VL: DIVLTQSPATLSLSPGERATLSCRASQSVRSSRLAWYQQKPGQAPRLLIYGASKRATGVPARFSGSGSGTDFTLTISSLEPEDFATYYCQQYYDFPPTFGQGTKVEIKR
notes: Purified Fab
As to B6, in experiment [1], the Kd worked out at 0.09 nM and the dissociation rate constant (koff) stood at 1.4e-05 s⁻¹.

B7: MOR06642 IgG (antibody, V domains shown)
VH: QVQLVQSGAEVKKPGESLKISCKGSGYSFTNYWIGWVRQMPGKGLEWMGVIMPSDSYTRYSPSFQGQVTISADKSISTAYLQWSSLKASDTAMYYCARYGHGMYGGALDVWGQGTLVTVSS
VL: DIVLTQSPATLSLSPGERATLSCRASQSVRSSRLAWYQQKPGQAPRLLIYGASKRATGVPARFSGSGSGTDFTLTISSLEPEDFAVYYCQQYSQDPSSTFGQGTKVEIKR
In experiment [2], B7 came in with an EC50 of 0.58 nM. This lies in the sub-nanomolar range.

B8: MOR06631 IgG (antibody, V domains shown)
VH: QVQLVQSGAEVKKPGESLKISCKGSGYSFTNYWIGWVRQMPGKGLEWMGFIWPVDSWTQYSPSFQGQVTISADKSISTAYLQWSSLKASDTAMYYCARYGHGMYGGALDVWGQGTLVTVSS
VL: DIVLTQSPATLSLSPGERATLSCRASQSVRSSRLAWYQQKPGQAPRLLIYGASKRATGVPARFSGSGSGTDFTLTISSLEPEDFATYYCQQYYDFPPTFGQGTKVEIKR
In turn, B8 gave a concentration for a half-maximal effect (EC50) in experiment [2] of 2.02 nM.

B9: MF-A Fab (Fab, V domains shown)
VH: QVQLVQSGAEVKKPGSSVKVSCKASGGTFSSYYFSWVRQAPGQGLEWMGGIIPKFGSANYAQKFQGRVTITADESTSTAYMELSSLRSEDTAVYYCARRTSMDYWGQGTLVTVSS
VL: DIALTQPASVSGSPGQSITISCTGTSSDVGGYNYVSWYQQHPGKAPKLMIYSVSKRPSGVSNRFSGSKSGNTASLTISGLQAEDEADYYCGAWAHMSLGKVFGGGTKLTVLG
notes: Purified Fab
Turning to B9, the Kd in experiment [1] came to 19 nM; in experiment [3], 19 nM; in experiment [4], 670 nM. The dissociation rate constant (koff) in experiment [1] came out at 0.079 s⁻¹; in experiment [3] it was 0.079 s⁻¹; in experiment [4], 0.27 s⁻¹.

B10: MOR06657 Fab (Fab, V domains shown)
VH: QVQLVQSGAEVKKPGSSVKVSCKASGGTFSSYYFSWVRQAPGQGLEWMGGIIPKFGSANYAQKFQGRVTITADESTSTAYMELSSLRSEDTAVYYCARRTSMDYWGQGTLVTVSS
VL: DIALTQPASVSGSPGQSITISCTGTSSDVGGYNYVSWYQQHPGKAPKLMIYSVSKRPSGVSNRFSGSKSGNTASLTISGLQAEDEADYYCATWDHSQMGKVFGGGTKLTVLG
notes: Purified Fab
As for B10, the equilibrium dissociation constant (Kd) in experiment [1] stood at 0.95 nM; in experiment [3], 0.95 nM; in experiment [4], 360 nM. For the same molecule, the off-rate (koff) in experiment [1] worked out at 0.0055 s⁻¹; in experiment [3] it was 0.0055 s⁻¹; in experiment [4], 0.16 s⁻¹.

B11: MF-226 Fab (Fab, V domains shown)
VH: QVELVQSGAEVKKPGASVKVSCKASGYTFTGNYINWVRQAPGQGLEWMGIINPHGGDTKYAQKFQGRVTMTRDTSISTAYMELSSLRSEDTAVYYCARWHHGTWIFDYWGQGTLVTVSS
VL: DIVLTQPPSVSGAPGQRVTISCSGSSSNIGSNYVSWYQQLPGTAPKLLIYNDNQRPSGVPDRFSGSKSGTSASLAITGLQSEDEADYYCSTYDRRTFSVFGGGTKLTVLG
notes: Purified Fab
With B11, the values for the Kd in experiment [1], in experiment [3] and in experiment [4] were 58 nM, 58 nM and 1280 nM, respectively. The values for the off-rate constant (koff) in experiment [1], in experiment [3] and in experiment [4] were 0.038 s⁻¹, 0.038 s⁻¹ and 0.14 s⁻¹, respectively.

B12: MOR06626 IgG (antibody, V domains shown)
VH: QVQLVQSGAEVKKPGASVKVSCKASGYTFTGNYINWVRQAPGQGLEWMGIINPTKGWTLYAQKFQGRVTMTRDTSISTAYMELSSLRSEDTAVYYCARWHHGTWIFDYWGQGTLVTVSS
VL: DIVLTQPPSVSGAPGQRVTISCSGSSSNIGSNYVSWYQQLPGTAPKLLIYNDNQRPSGVPDRFSGSKSGTSASLAITGLQSEDEADYYCSTYDRRTFSVFGGGTKLTVLG
Take B12: a half-maximal effect in experiment [2] (EC50) was put at 0.44 nM. This lies in the sub-nanomolar range.

B13: MOR06638 IgG (antibody, V domains shown)
VH: QVQLVQSGAEVKKPGASVKVSCKASGYTFTGNYINWVRQAPGQGLEWMGIINPHGGDTKYAQKFQGRVTMTRDTSISTAYMELSSLRSEDTAVYYCARWHHGTWIFDYWGQGTLVTVSS
VL: DIVLTQPPSVSGAPGQRVTISCSGSSSNIGSNYVSWYQQLPGTAPKLLIYNDNQRPSGVPDRFSGSKSGTSASLAITGLQSEDEADYYCSSWDRADGSYVFGGGTKLTVLG
Consider B13, for which the EC50 in experiment [2] is 0.19 nM.

B14: MOR06638 Fab (Fab, V domains shown)
VH: QVQLVQSGAEVKKPGASVKVSCKASGYTFTGNYINWVRQAPGQGLEWMGIINPHGGDTKYAQKFQGRVTMTRDTSISTAYMELSSLRSEDTAVYYCARWHHGTWIFDYWGQGTLVTVSS
VL: DIVLTQPPSVSGAPGQRVTISCSGSSSNIGSNYVSWYQQLPGTAPKLLIYNDNQRPSGVPDRFSGSKSGTSASLAITGLQSEDEADYYCSSWDRADGSYVFGGGTKLTVLG
notes: Purified Fab
On to B14, for which the Kd was 16 nM in experiment [1], 16 nM in experiment [3] and 320 nM in experiment [4]. For the same molecule, the koff worked out at 0.0063 s⁻¹ in experiment [1], 0.0063 s⁻¹ in experiment [3] and 0.04 s⁻¹ in experiment [4].

B15: MOR06626 Fab (Fab, V domains shown)
VH: QVQLVQSGAEVKKPGASVKVSCKASGYTFTGNYINWVRQAPGQGLEWMGIINPTKGWTLYAQKFQGRVTMTRDTSISTAYMELSSLRSEDTAVYYCARWHHGTWIFDYWGQGTLVTVSS
VL: DIVLTQPPSVSGAPGQRVTISCSGSSSNIGSNYVSWYQQLPGTAPKLLIYNDNQRPSGVPDRFSGSKSGTSASLAITGLQSEDEADYYCSTYDRRTFSVFGGGTKLTVLG
notes: Purified Fab
With B15, the dissociation constant Kd in experiment [1] is 0.67 nM; in experiment [3], 0.67 nM; in experiment [4], 6.7 nM. In addition, the koff in experiment [1] amounted to 0.0012 s⁻¹; in experiment [3], 0.0012 s⁻¹; in experiment [4], 0.0098 s⁻¹.

B16: MOR06643 Fab (Fab, V domains shown)
VH: QVQLVESGGGLVQPGGSLRLSCAASGFTFSDYAMSWVRQAPGKGLEWVSAIMYDSSSTFYADSVKGRFTISRDNSKNTLYLQMNSLRAEDTAVYYCARINYIYKGVHFDYWGQGTLVTVSS
VL: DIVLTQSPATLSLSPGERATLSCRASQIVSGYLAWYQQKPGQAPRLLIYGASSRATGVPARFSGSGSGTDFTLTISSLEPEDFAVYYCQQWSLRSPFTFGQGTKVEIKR
notes: Purified Fab
As to B16, in experiment [1], the Kd was found to be 0.36 nM and the koff came out at 0.00028 s⁻¹.

What is called Kd is a measure of binding affinity in units of concentration. One may read the koff as the first-order rate constant of dissociation. The EC50 is the concentration needed to bring the measured effect to its halfway point.

(Values after patent US20180258181A1 (Bayer, published 2018).)
